According to the nanobody polyreactivity screen of Harvey et al. (2022):

Assay: yeast display, Sf9 membrane polyspecificity reagent, FACS + sequencing; frameworks hold sequencing errors
Outline: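 Galactose-induced (36–48 hours) yeast carrying a synthetic nanobody display library were exposed to 10% biotinylated, detergent-solubilized Sf9 membrane reagent at 4 °C for 1 hour. FACS followed streptavidin microbead enrichment, using low and high (top ~1%) gates for expression (anti-HA) and reagent binding (streptavidin). Colony PCR, MiSeq 2 × 250 sequencing and CDR-length filtering followed. Labels for polyreactivity reflect the gate of origin.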

Sequence | polyreactivity (PSR sort gate)
QVQLVESGGGLVQAGGSLRLSCASSGRTISSYAMGWYRQPPGKERELVAGISWRGGRTYYADSVKGRFTISRDNAKITVYLQMNSLKPEDTAVSYCAADRVRGGYRTYYWVVHLDYWGQGTQVTVSS | high polyreactivity
QVQLVESGGGLVQAGGSLRLSCASSGRTSVINAMGWYRQAPGKERELVATITWSGASTYYADSVKGRFTISRDNAKNTVYLQMNSLKPEDTAVYYCNAESLYTPYNDTSLTVEYGYWGQGTQVTVSS | low polyreactivity
QVQLVESGGGLVQAGGSLRLSCASSGRTVGYNAMGWSRQPPGKEREFVAAITWSGGRTYYADSVKGRFTISRDNAKNTVYLLMNSLKPEDTAVYYCAIDGYWDFDYWGQGTQVSVSS | low polyreactivity
QVQLVESGGGLVQAGGSLRLSCASSGSIFAWNAMGWYRQTPGKERELVAAINSGGGTYYADSVKGRFTISRDNAKNTVYSQMNSLIPEDTAVYYCAAGRLSHRYRYNYWGQGTQVTVSS | high polyreactivity
QVQLVESGGGLVQAGGSLRLSCASSGSIFFANAIGWYRQAPGKERELVATISWRGGSTYYAYSVKGRFTISRDIAKNSVYLQKNSLKPEDTAVYYCAAGYYPYWGQGTQLTVSS | low polyreactivity
QVQLVESGGGLVQAGGSLRLSCASSGSIFFEYAMVWYRQAPGKERELDASINRGGGSTYYADSVKGRFTISRDNAKNTVYLQMNSLKPEDTAVYYCAAQWKYRQSYLDYYWGQGTQVTVSS | low polyreactivity
QVQLVESGGGLVQAGGSLRLSCASSGSIFFLYAMGWYRQAPGKERELVAAITGSGSRTYYADSVKGRFTISRDNEKNTVYLHMNSLKPEYTAVYYCAARYYGAYGKQPRARYGYWGKGTQVTVSS | high polyreactivity
QVQLVESGGGLVQAGGSLRLSCASSGSIFGAYAMGWYRQAPGKERELVAAITSVGSTYYADSVKGRFTISRDNAKNTVYVQMNSLIPEDTAVYYCAKRQWRPTYRYGYWGQGTQVTVSS | low polyreactivity
QVQLVESGGGLVQAGGSLRLSCASSGSIFGGYAMGWYRQAPGKERELVAAITSSGGLTYYADSVKGRFTISRDNAKNTVYLQMNCLKPEDTAVYYCAAVTVAGYDYWGQGTQVTVSS | high polyreactivity
QVQLVESGGGLVQAGGSLRLSCASSGSIFLINAMGWYRQAPGKERELVAAISRSGGRTYYADSVKGRFTISRDNAKNTVYLQMNSLKPEDTAVYYCAVPSIYYAGRAYDYWGQGTQVTVSS | high polyreactivity
QVQLVESGGGLVQAGGSLRLSCASSGSIFPRYAMGSYRPAPGKERELVAAISQSGGRTYYADSVKGRFTISRDNAKNTVYLQMNSMKPEDTAVYYCAALVSGEYDYWGQGTQVTVSS | high polyreactivity
QVQLVESGGGLVQAGGSLRLSCASSGSIFSTYAMGWYRQAPGKEMELVATIRRGGSTYYADSVKGPFTISRDNAKNTVYLQMNSLKPEDTELYYCAAAGGRFIRYGYWGQGTQVTVSS | high polyreactivity
QVQLVESGGGLVQAGGSLRLSCASSGSIFSYNAMGWYRQAPGKERELVAAITRSGGSTYYADSVKGRFTISRDNAKNTVYLQMNSLKPEDTAVYYCAVYLPYSQRYVHYYYWGQGTQVTVSS | high polyreactivity
QVQLVESGGGLVQAGGSLRLSCASSGSIFVHNDMGWYRQAPGKERELVARINTGGGTNYADSVKGRFTISRDNSKNTVYLQMNRLKPEDRAVYYCAAVLFVFYDEYGYWEYFSQYDYWGQGTKVTVSS | low polyreactivity
QVQLVESGGGLVQAGGSLRLSCASSGSILTSYAMGWYRQAPRKERELVASIDWSAGTTYYADSVKGRFTISRDNAKNTVYLQMNSLKPEDTAVYYCGKLEFLSGYPYRPEYGSWGQGTQVTVSS | low polyreactivity
QVQLVESGGGLVQAGGSLRLSCASSGSNVYIYAMGWYRQAPGKERELVAAISSAGSTYYADSVKGRFTISRDNAKNTVYLQMNSLKPEDTAVYYCAARAQYPGWRYNYWGQGTQVTVSS | high polyreactivity
QVQLVESGGGLVQAGGSLRLSCASSGSTFHDYAMGWYRQAPGKERELVAAISNSGGSTYYADSVKGRFTISRDNAKNTVYLQMNSLKPEDTAVYYCAADGRWYWDYEYWGQGTQVTVSS | low polyreactivity
